# Measurements published in the supplement of paper PMC9112550, “Optimization of the antimicrobial peptide Bac7 by deep mutational scanning” (BMC Biology, 2022).
# Test system: Escherichia coli TOP10
# Test: shrunken log2 fold change of peptide-encoding DNA abundance (4.5 h post-induction vs induction); higher = less antimicrobial activity (less host growth inhibition)
# Details: time post-induction: 4.5 h; library: site-saturation at positions 5, 18, 19, 20
# 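Further: peptides expressed intracellularly from a pBAD plasmid library in pooled LB shake-flask culture, induced with 0.3% L-arabinose, DNA abundance read by NGS, three biological replicates, DESeq2 with apeglm shrinkage.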
row,Sequence,shrunken log2 fold change
1,RRIRRRPPRLPRPRPRPCWSPRP,-0.0452
2,RRIRFRPPRLPRPRPRPYQCPRP,-0.0374
3,RRIRGRPPRLPRPRPRPTTGPRP,0.418
4,RRIRCRPPRLPRPRPRPCAMPRP,-0.103
5,RRIRTRPPRLPRPRPRPPYMPRP,-0.302
6,RRIRRRPPRLPRPRPRPYMLPRP,-0.685
7,RRIRPRPPRLPRPRPRPKHTPRP,-0.198
8,RRIRHRPPRLPRPRPRPRGPPRP,0.171
9,RRIRYRPPRLPRPRPRPEICPRP,0.0682
10,RRIRKRPPRLPRPRPRPCDQPRP,-0.0132
11,RRIRLRPPRLPRPRPRPSEMPRP,-0.0614
12,RRIRVRPPRLPRPRPRPNDKPRP,-0.351
13,RRIRCRPPRLPRPRPRPNMNPRP,-0.88
14,RRIRGRPPRLPRPRPRPDHYPRP,-0.203
15,RRIRVRPPRLPRPRPRPFQSPRP,-0.00568
16,RRIRVRPPRLPRPRPRPTTKPRP,-0.162
17,RRIRDRPPRLPRPRPRPSGPPRP,-0.0549
18,RRIRWRPPRLPRPRPRPSQIPRP,-0.165
19,RRIRHRPPRLPRPRPRPCFSPRP,0.0626
20,RRIRQRPPRLPRPRPRPCLRPRP,-0.379

row,Sequence,shrunken log2 fold change
1,RRIRCRPPRLPRPRPRPGERPRP,0.01
2,RRIRARPPRLPRPRPRPKQCPRP,0.123
3,RRIRLRPPRLPRPRPRPHSQPRP,-0.0709
4,RRIRHRPPRLPRPRPRPSPEPRP,-0.0554
5,RRIRTRPPRLPRPRPRPEWCPRP,0.272
6,RRIRTRPPRLPRPRPRPRDYPRP,0.104
7,RRIRCRPPRLPRPRPRPSVDPRP,-0.139
8,RRIRERPPRLPRPRPRPLYLPRP,-0.77
9,RRIRTRPPRLPRPRPRPHVFPRP,-0.119
10,RRIRWRPPRLPRPRPRPSETPRP,0.0208
11,RRIRLRPPRLPRPRPRPCQAPRP,0.0641
12,RRIRQRPPRLPRPRPRPWLMPRP,-0.102
13,RRIRIRPPRLPRPRPRPYFEPRP,-1.2
14,RRIRNRPPRLPRPRPRPLAWPRP,0.00628
15,RRIRPRPPRLPRPRPRPFTRPRP,-0.00841
16,RRIRNRPPRLPRPRPRPLAYPRP,-0.175
17,RRIRFRPPRLPRPRPRPAFIPRP,-0.274
18,RRIRMRPPRLPRPRPRPHGEPRP,0.365
19,RRIRGRPPRLPRPRPRPRFMPRP,0.172
20,RRIRQRPPRLPRPRPRPCRVPRP,-0.306

row,Sequence,shrunken log2 fold change
1,RRIRKRPPRLPRPRPRPIVMPRP,0.0102
2,RRIRPRPPRLPRPRPRPSVIPRP,-0.00563
3,RRIRSRPPRLPRPRPRPKCRPRP,0.0128
4,RRIRGRPPRLPRPRPRPPHAPRP,1.37
5,RRIRCRPPRLPRPRPRPNTSPRP,-0.343
6,RRIRYRPPRLPRPRPRPCTKPRP,-1.15
7,RRIRPRPPRLPRPRPRPTKFPRP,-0.0516
8,RRIRCRPPRLPRPRPRPQWAPRP,0.0425
9,RRIRHRPPRLPRPRPRPRKWPRP,-0.0137
10,RRIRARPPRLPRPRPRPRLVPRP,0.512
11,RRIRVRPPRLPRPRPRPYHVPRP,-0.055
12,RRIRFRPPRLPRPRPRPPNEPRP,0.0211
13,RRIRMRPPRLPRPRPRPDACPRP,1.97
14,RRIRFRPPRLPRPRPRPFLYPRP,-1.04
15,RRIRWRPPRLPRPRPRPFHIPRP,-0.655
16,RRIRIRPPRLPRPRPRPARIPRP,-0.0826
17,RRIRHRPPRLPRPRPRPTIIPRP,-0.494
18,RRIRTRPPRLPRPRPRPLYAPRP,-0.274
19,RRIRGRPPRLPRPRPRPYTFPRP,0.151
20,RRIRTRPPRLPRPRPRPNVDPRP,-0.625
